US20210169980A1

Molecular target: GABARAP (human) (UniProt O95166)
Assay: ITC, GABARAP titrated into the peptide

Chain of GABARAP (human) (O95166 whole entry): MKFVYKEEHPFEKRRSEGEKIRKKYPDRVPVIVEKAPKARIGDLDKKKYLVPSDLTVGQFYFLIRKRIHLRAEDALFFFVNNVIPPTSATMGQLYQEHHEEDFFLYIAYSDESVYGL

FAM134B LIR-L E462R (peptide)
Kd: 633 nM
